Data on 16 sequences can be found in the DeepSol protein solubility set.

The nature of this series: soluble on expression in E. coli; label from the status in PepcDB or PDB records.
On to “MRMRHKPWWDDFLAENADIAISNPADYKGKWNTVFGNDNPIHIEVGTGKGQFISGMAKQNPDINYIGIELFKSVIVTAVQKVKDSEAQNVKLLNIDADTLTDVFEPGEVKRVYLNFSDPWPKKRHEKRRLTYSHFLKKYEEVMGKGGSIHFKTDNRGLFEYSLKSFSEYGLLLTYVSLDLHNSNLEGNIMTEYEEKFSALGQPIYRAEVEWRT”, for which the “soluble on expression in E. coli” value is given as “soluble”.

As to “MGSDKIHHHHHHMAATPRKLSSKEVAALVGNLMEASESTSLENGLEVRPYAFGENELNQLGDYHALRIINERFCRTARDVFLPMLRLQPRISSFPPEVRSFDDYRSSQDNFVSITASRIEELRGNQMIVIPPPFISLLTDSYYGGQIRHVPTTRTEFTATEERVIELVTDRLNVALQVAWRDLMALTFTVVSREESMQFASFVDGEDMVVNCSFMVQLPNTEPASFDILYPLQTLKPISSQLRSRMQSDFVDDDRSWREKLERAILSIPLTLSARLCEPEVPLRQLMQMQPGDVLPVHLTEAVSLLVEGQPIFEAAPGERGGQAALNLTRRHVRS”, the “soluble on expression in E. coli” value is “not soluble”.

Consider “MDRISQLSDDLLLQILSFIPGKDVVATSLLSKRWQSLWMLVSELEYDDSYHTGDYKSFSQFVYRSLLSNNAPVIKHLHLNLGPDCPAIDIGLWIGFALTRRLRQLKINIRTSSNDASFSLPSSLYTSDTLETLRLINFVLLDVPSSVCLPSLKVLHLKTVDYEDDASLPSLLFGCPNLEELFVERHDQDLEMDVTFVVPSLRRLSMIDKNYGQCDRYVIDVPSLKYLNITDDAVYDVRQIENMPELVEAHVDITQGVTHKFLRALTSVRQLSLCLSLSEKQHESGLCGIETPIGWKLPSSVPECLLFSLEAFEWIGYKGRRGDREVATYVLKNAACLRTAKFSPESTDVGEKYHMLKELASVPTASTSSKLLFD”, for which the “soluble on expression in E. coli” value is reported as “soluble”. Next, “MAHHHHHHMRRALHAAALPSRAPLTPQRYKSYVLKFLRGQLPHDLKDCAGALGCLYGTLPDVDEYRQFVVPLQVLQQYHQLGYAKLPRPVLDPPQVDILADEVNQLANNVEHHPKSEHLYATSLADLTGGPLFYCQGQWRCAWGMHDLVYLPTLTVAASQALGNRLVRLWYDEAFMKEARTGPCVPWQQNYVRWQHTTPVNHVSIMIALDTLNKDRGAPCLIPGSHRWREGQLLPPVPYDPTQSETQQLNTIWDITNDDEQEMLADTPPATVDLRRGEALLIHPKTLFATHGNRSLDAARCCCVHYMGEATCAVQDGPLLPHTTRFRAGTRVSGPFFPVVFDPAMTEDLLMLDNKEGGAAA”: “not soluble”. Turning to “MNNILSEEVLNVTDFTTSRQLTLWKREDLQSPQLDDVAEEVPVALVYNGISHVVMMASPKDLTHFAMGFSLSEGIIDSPREIYGMDVVPSCNGLEVQIDLSSRRFMGLKARRRALAGRTGCGVCGVEQLNDIGKPVQPLPFSQTFNLGNLDRALKHLNDFQPTGKLTGCTHAAAWVMPSGELAGGHEDVGRHVALDKLLGRRATEGEEWRQGAALVSSRASYEMVQKSAMCGVEILFAVSAATTLAVEVAERCNLTLVGFCKPGRATIYTHPQRLIADLEHHHHHH”, the “soluble on expression in E. coli” value is “not soluble”.

As for “MRISLKQLNVFTVIAQEKTMTKAAERLYITKPAVSLSLSELEKNLGYKVFDRVNNRLVLNSEGRQLLPLADELLERAEVIEHQFATDSQLTGSLNIGASDTIGNHIAPVLLSKFQQQYPCDIQQLFISNTAQIINRLLEFQLDIGLVEGKAHHPKLNMIEWRRDDMYLVCSPSHPLATKAQVTLDDLEHSTWLLREEGSGSREYFINHIAANLNDWHESLQLHTTEAIINCCAENMGLACLSQLAAQNAINDGRLVKLAYNKTLARQYWLLVHKEKYQTPLLQYFMNFIQQK”, the “soluble on expression in E. coli” value was “not soluble”. Next, “MGSDKIHHHHHHMPLRGGVTCRVPSGMWMVPPHCGVWVPGGMLHSNVATANARLFFLFIEPGAADLPNRCCTLSLSPLVRELIIELADQSEVATADSELMTTLLLSALSRMPVEHLHLPLTDEPRLARIASELADDPSDRSTMAQWARRVAMSENSLARLVQHQTGLTFGRWRQQLQLIIAIRSLASGATVQQVSGDLGYESVSAFITMFKKALGTSPSRYLRNFDR”: “not soluble”; “MKSYPDPYRHFENLDSAETQNFAAEANAETRARFLENDKARALSDGILAQLQDTRQIPFCQEHRARMYHFHQDAEYPKGVYRVCTAATYRSGYPEWKILFSVADFDELLGDDVYLGGVSHLVEQPNRALLTLSKLGSDTAYTLEVDLEAGELVEGGFHFPAGKNHVSWRDENSVWVCPAWNERQLTQSGYPREVWLVERGKSFEESLPVYQIGEDGMMVNAWRYLDPQGSPIDLIEASDGFYTKTYLRVSAEGEAKPLNLPNDCDVVGYLAGHLLLTLRKDWN”: “not soluble”. Next, “MSLEDCVISEWGPWTQCALPCNPSGSRQRSADPIRQPADEGRACPDAVEKEPCSLNKNCYHYDYNVTDWSTCQLSEKAVCGNGIKTRMLDCVRSDGKSVDLKYCEELGLEKNWPMNTSCTVECPVNCQLSDWSSWSQCSQTCGLTGKMIRKRTVTQPFQGDGRPCPSLMEQSKPCPVKPCYRWQYGQWSPCQVQEAQCGEGTRTRNISCVVSDGSAEDFSKVVDEEFCANTELEGHHHHHH”: “not soluble”. In the case of “MSLDSRPKLPQTLSRGWGDQLIWTQTYEEALYKSKTSNKPLMIIHHLDECPHSQALKKVFAENKEIQKLAEQFVLLNLVYETTDKHLSPDGQYVPRIMFVDPSLTVRADITGRYSNRLYAYEPADTALLLDNMKKALKLLKTELEGHHHHHH”, the “soluble on expression in E. coli” value is listed as “soluble”. Next, “MAFICPEEIEAYAEEHSSELHPILEELVEFTYKNTDLPQMMVGRAEGNFLKMLVEISGAKRVLEIGTFTGFSALMMAQGLPEDGKLTTIEVNPEYAQMAKSFIERAPWGKKIEVIVGDARKVLEEFKKESFDFIFIDADKSSYPYYYEKCLELLKKGRLMAIDNALWEGKVLEPDDNRSKAIARMNEMIKEDPRVEKVLLTVRDGIFLVRKI”: “soluble”; “MAHHHHHHMAFAGSNDVLKVQKMLQVLVEKRSDKKVNMDGSAKPTDQPHHPAPCGNAVDGKAPQGADAKGPLLDGKRANPTLGSSKSAKTGPAD”: “not soluble”. For “MANKETDILIIGGGLTGASLSLALQGLGFSVTLVESRPYSDKVNPDFDARSLALSPASQRILAMLGVWEILKEYTTPIHMIHVSDQHRFGASRLHGEKNSPLGYVVEMQYINRALSILINKEHLLTPAALKSIDFNNSTATVAHGDDMISIRAQLIVAADGTESMTRYLCNLPVKIKDYAQDAIVANVGLIKPHGNRAFERFTPNGPLALLPMMNDKMSLVWASKPEEAKRLVMLNDDDFLRELQTAFGYRLGRFGKVGKRYSYPLKQVLMPQQTKWPVVFVGNAAHTLHPVAGQGFNLGLRDIAALAQCISQKGLNPQMLEHYLQLRAHDQQMITWLTDGLIHLFTSRLPGMGVARNLGLLALDNIPALKNLLARYARGFGGITPDLVCEIALSAGEFQLEHHHHHH”, the “soluble on expression in E. coli” value is “soluble”. Turning to “RIPVKYGNADGEYCKFPFLFNGKEYNSCTDTGRSDGFLWCSTTYNFEKDGKYGFCPHEALFTM”, the “soluble on expression in E. coli” value is “soluble”. Next, “MMKNMARKNQKAPWEEEEEIIWVSRTELKNDMLALQKLGEELVELKPSALAKFPLPEDLAEAIKDAQRFKNEARRRQLQYIGKLMRHIDPEPLQAALDKLRNKHSQTTALLHKLEQLRDRIVAEGDSAIEVAMEQYPEADRQRLRLLARQASKEKAGNKPPKSSREIFQLLKEAMLAKQEIEEESEDDLDSAE”: “not soluble”; “GPGSMAASSVASVSATKASALAAKKAEKDAHDSRSLFEEYEQLSKDIKNIQLKTMICRTETHQLMKEESAAKQEVKRIQAVPLVLGNFVEVVDSVRGIVSGTSGSQYFVRILSTLNKEHLKPNVSVGLHKSSNACVQLLPSETDATITLLNSSDRPDVTYSDVGGLDMQKQEIREAVELPLTHAGLYEQIGIDPPRGVLLYGPPGTGKTMLVKAVARHTKASFIRVVGSEFVQKFLGEGPRKVRDVFRLARENAPSIIFIDEVDSIATKRFDAQTGADREVQRVLVELLTQMDGFDQTTNVKVIMATNRWDTLDPALLRPGRLDRKIEFPYPDRRQKRLVFQVCTSKMNLSPEVDLEDYVTRPEKLSGADIQSICQEAGMLAVRKNRYVILPRDIENAYRTVIKKTGDETYDFYS”: “not soluble”.
